Measured values reported in patent US20230002466A1 (ELPIS BIOPHARMACEUTICALS, published 2023).
Substitutions are numbered along the chain they refer to. One block for each binder: values may come before it.

What was measured:
[1] = target: T1, human IL2Rβ Fc fusion protein (human, UniProt P14784 27-239); assay: ELISA, Fc-tagged receptor coated, anti-HisTag-HRP
T1 construct: also called Recombinant Fc-tagged human IL2Rβ; not shown: Fc
T1 sequence (looked up): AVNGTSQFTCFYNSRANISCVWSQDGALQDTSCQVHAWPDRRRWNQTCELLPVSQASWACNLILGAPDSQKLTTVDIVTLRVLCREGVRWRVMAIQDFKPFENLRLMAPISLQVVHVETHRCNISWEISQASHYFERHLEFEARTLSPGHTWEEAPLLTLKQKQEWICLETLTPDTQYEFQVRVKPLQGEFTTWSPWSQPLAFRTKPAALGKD
Method: (§1) Recombinant Fc-tagged human IL2Rα and IL2Rβ were added in 25 uL of 1×PBS to wells of 384-well plate and incubated overnight at 4° C. to coat the plates. Plates were washed three times with 0.05% Tween20/1×PBS. Plates were blocked with 100 uL of SuperBlock for 1 hr at RT and then washed 3 times with 0.05% Tween20/1×PBS. IL2 mutants were diluted in 0.05% Tween 20/1×PBS from 1000 nM to 0 nM and added to plates for 2 hrs at room temperature. Plates were then washed 6 times with 0.05% Tween20/1×PBS. Anti-HisTag-HRP was diluted 1:5000 in 0.05% Tween20/1×PBS and added to plates for 1 hr at RT. Plates were then washed 6 times with 0.05% Tween 20/1×PBS, and TMB was added to develop blue color. Reactions were stopped with 2N […] and light absorbance at 450 nm was read on a BioTek plate reader.

human IL2Rβ [2] = target: T2, human IL2Rβ (human, UniProt P14784 27-239); assay: SPR, single concentration
T2 construct: also called IL2β; CD122
T2 sequence (looked up): T1 sequence (looked up)

[3] = target: T3, recombinant His-tagged human IL2Rβ (human, UniProt P14784 27-239); assay: SPR (Biacore T200): Fc fusion captured on anti-hFc chip, IL2Rβ-HIS injected in 2-fold dilutions from 100 nM
T3 construct: also called hIL2Rβ; not shown: His tag
T3 sequence (looked up): T1 sequence (looked up)
Method: Binding kinetics of monovalent IL2Rβ Fc fusion proteins have been analyzed by SPR technology with Biacore T200. Briefly, anti-hFc antibody was immobilized on flow cell 1 and 2. For each cycle, 1 ug/mL of IL2 Fc fusion protein was captured for 60 seconds at flow rate of 10 ul/min on flow cell 2 in 1×HBSP buffer on anti-hFc immobilized chip. 100 nM IL2Rα-HIS tagged or IL2Rβ-HIS tagged was 2-fold serial diluted and injected onto both reference flow cell 1 and IL2 Fc fusion protein were captured at flow cell 2 for 150 seconds at flow rate of 30 ul/mins. 300 seconds wash was applied after the last injection. The assay was set up with 8 serial diluted concentration points in 96 well format. The kinetics data was analyzed with Biacore T200 evaluation software 3.0. The specific binding response unit was derived from subtraction of binding to reference flow cell 1 from target flow cell 2 (FIGS. 39A-39D).

human IL2Rα [4] = target: T4, human IL2Rα (human, UniProt P01589 22-213, limits assumed); assay: SPR, receptor captured on Protein A chip, E. coli-produced IL2
T4 construct: also called IL2α; CD25
T4 sequence (looked up): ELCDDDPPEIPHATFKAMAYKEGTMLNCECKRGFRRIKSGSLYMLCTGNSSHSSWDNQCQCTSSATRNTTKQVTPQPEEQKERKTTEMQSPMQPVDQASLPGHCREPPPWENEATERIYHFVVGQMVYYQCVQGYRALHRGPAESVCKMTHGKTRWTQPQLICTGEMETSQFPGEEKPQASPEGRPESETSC
Method: (§2) The assay was run with Biacore T200 control software version 2.0. For each cycle, 1 μg/mL of human IL2Rβ or IL2Rα was captured for 60 seconds at flow rate of 10 μL/min on flow cell 2 in 1×HBST buffer on Protein A sensor chip. Two-fold serial diluted HIS tag purified engineered IL2 mutant was injected onto both reference flow cell 1 and IL2Rβ or IL2Rα captured flow cell 2 for 150 seconds at flow rate of 30 μL/min followed by washing for 300 seconds. The flow cells were then regenerated with Glycine pH 2 for 40 seconds at a flow rate of 30 μL/mins. Eight concentration points from 0 to 100 nM were assayed for each IL2Rβ agonist clone 96-well plate format. The kinetics data was analyzed with Biacore T200 evaluation software 3000. The specific binding response unit was derived from subtraction of binding to reference flow cell 1 from target flow cell 2.

human IL2Rβ [5] = target: T2, human IL2Rβ; assay: as above
Method: as §2

human IL2Rα [6] = target: T4, human IL2Rα; assay: SPR, receptor captured on Protein A chip, mammalian-produced IL2
Method: as §2

human IL2Rβ [7] = target: T2, human IL2Rβ; assay: as above
Method: as §2

human IL2Rα [8] = target: T4, human IL2Rα; assay: SPR, IL2Rα captured on Protein A chip, IL2 at 100 nM
Method: The binding kinetics of IL2Rα-reduced binding clones to IL2Rα was assessed utilizing SPR technology with a Biacore T200, software version 2.0. For each cycle, 1 ug/mL of human IL2Rα was captured for 60 seconds at a flow rate of 10 uL/min on flow cell 2 in 1×HBSP buffer on a Protein A sensor chip. 100 nM of each HIS and Flag tag purified IL2 mutant was injected onto both the reference flow cell 1 and IL2Rα captured flow cell 2 for 150 seconds at a flow rate of 30 uL/min followed by washing for 300 seconds. The flow cells were then regenerated with Glycine pH 2.0 for 60 seconds at a flow rate of 30 uL/min. A HBSP+ buffer was included with each sample as a baseline control. The assay was set up in a 96-well format. The kinetics data was analyzed with Biacore T200 evaluation software 3.0. The specific binding response unit was derived from subtraction of binding to reference flow cell 1 from IL2Rα flow cell 2 and subtraction of buffer control. […] Relative response (RU) was determined for each IL2Rα-reduced binding clone (FIG. 4, Table 3).

[9] = target: T5, human IL2Rα Fc fusion protein (human, UniProt P01589 22-213, limits assumed); assay: ELISA, receptor-Fc coated, anti-Flag HRP
T5 construct: also called Recombinant Fc-tagged human IL2Rα; not shown: Fc
T5 sequence (looked up): T4 sequence (looked up)
Method: (§3) Briefly, 384 well plate was immobilized with human IL2Rα and IL2Rβ Fc fusion proteins at a final concentration of 2 ug/mL in 1×PBS in total volume of 25 uL per well. The plate was incubated overnight at 4 C and blocked with 80 uL of superblock per well for 1 hour. […] Each dilution was added to IL2Rα or IL2Rβ wells in parallel in duplicates. The IL2 mutant binding was detected by adding 25 uL of anti-Flag HRP diluted at 1:5000 in 1×PBST. In between each step, the plate was washed three times with 1×PBST using a plate washer. The plate was then developed with 25 uL of TMB substrate for five minutes and stopped by adding 25 ul of 2N sulfuric acid. The plate was read at OD450 nm Biotek plate reader and the EC50 was analyzed with Prism 8.1 software to generate EC50 values (FIG. 15A for IL2Rα, and FIG. 15B for IL2Rβ, summarized in Table 9).

[10] = target: T1, human IL2Rβ Fc fusion protein; assay: ELISA, receptor-Fc coated, anti-Flag HRP
Method: as §3

human IL2Rβ [11] = target: T2, human IL2Rβ; assay: SPR, IL2Rβ captured on Protein A chip
Method: (§4) The assay was run with Biacore T200 control software version 2.0. For each cycle, 1 ug/mL of human IL2Rβ was captured for 60 seconds at flow rate of 10 uL/min on flow cell 2 in 1×HBSP buffer on Protein A sensor chip. 100 nM of HIS and Flag tag purified each IL2 mutant was 2-fold serial diluted and injected onto both reference flow cell 1 and IL2Rβ captured flow cell 2 for 150 seconds at flow rate of 30 uL/min followed by washing for 300 seconds. The flow cells were then regenerated with Glycine pH2 for 60 seconds at a flow rate of 30 uL/min. The assay was set up with 8 serial diluted concentration points in 96-well format. The kinetics data was analyzed with Biacore T200 evaluation software 3.0. The specific binding response unit was derived from subtraction of binding to reference flow cell 1 from target flow cell 2 (FIGS. 16A-16F, Table 10).

[12] = target: T5, human IL2Rα Fc fusion protein; assay: ELISA, Fc-tagged receptor coated, anti-HisTag-HRP
Method: as §1

[13] = target: T5, human IL2Rα Fc fusion protein; assay: ELISA, single point, Fc-tagged human IL2Rα coated, anti-His-HRP; concentration not printed (Example 14)
Method: as §1

human IL2Rα [14] = target: T4, human IL2Rα; assay: SPR (Biacore T200), human IL2Rα, one trace per clone drawn, concentrations not printed (Example 13)
human IL2Rβ [15] = target: T2, human IL2Rβ; assay: SPR, IL2Rβ captured on Protein A chip, steady state affinity fitting
Method: as §4

EC50 [1]: 948 nM
Kd (human IL2Rβ [2]): 2.79 nM
B1: EP349 (ligand)
chain: APTSSSTKKTQLQLEHLLLDLQMILNGINNYKNPKLTRMLTAKFYMPKKATELKHLQCLEEELKPLEEVLNLAQSKNFHLTARDAIDNINVIVQELKGSETTFMCEYADETATIVEFLNRWITFSQSIISTLTGSHHHHHH

EC50 [1]: 152 nM
Kd (human IL2Rβ [2]): 12.5 nM
B2: EP345 (ligand)
chain: B1 chain with R38V, A42F, Y45S

Kd [3]: 5.79 nM
koff [3]: 0.00883 s⁻¹
kon [3]: 1.53e+06 M⁻¹ s⁻¹
B3: EP214/EP215 (Fc fusion)
chain: APTSSSTKKTQLQLEHLLLDLQMILNGINNYKNPKLTEMLTFKFYMPKKATELKHLQCLEEELKPLEEVLNLAQSKNFHLTARDAVDNMRVIIQELKGSETTFMCEYADETATIVEFLNRWITFSQSIISTLTESKYGPPCPPCPAPEFEGAPSVFLFPPKPKDTLMISRTPEVTCVVVDVSQEDPEVQFNWYVDGVEVHNAKTKPREEQFQSTYRVVSVLTVLHQDWLNGKEYKCKVSNKGLPSSIEKTISKAKGQPREPQVYTLPPCQEEMTKNQVSLWCLVKGFYPSDIAVEWESNGQPENNYKTTPPVLDSDGSFFLYSALTVDKSRWQEGNVFSCSVMHEALHNHYTQKSLSLSLGK
Fc: ESKYGPPCPPCPAPEFEGAPSVFLFPPKPKDTLMISRTPEVTCVVVDVSQEDPEVQFNWYVDGVEVHNAKTKPREEQFQSTYRVVSVLTVLHQDWLNGKEYKCKVSNKGLPSSIEKTISKAKGQPREPQVCTLPPSQEEMTKNQVSLSCAVKGFYPSDIAVEWESNGQPENNYKTTPPVLDSDGSFKLVSRLTVDKSRWQEGNVFSCSVMHEALHNHYTQKSLSLSLGK

Kd (human IL2Rα [4]): 21.4 nM
relative activity IL2Rα (KD: fold) against WT IL2 (human IL2Rα [4]): -2.3 fold
Kd (human IL2Rβ [5]): 0.123 nM
koff (human IL2Rβ [5]): 0.00027 s⁻¹
kon (human IL2Rβ [5]): 2.18e+06 M⁻¹ s⁻¹
relative activity IL2Rβ (KD: fold) against WT IL2 (human IL2Rβ [5]): 35200 fold
Kd (human IL2Rα [6]): 302 nM
relative activity IL2Rα (KD: fold) against WT IL2 (human IL2Rα [6]): -22.4 fold
Kd (human IL2Rβ [7]): 0.145 nM
koff (human IL2Rβ [7]): 0.000376 s⁻¹
kon (human IL2Rβ [7]): 2.59e+06 M⁻¹ s⁻¹
relative activity IL2Rβ (KD: fold) against WT IL2 (human IL2Rβ [7]): 6970 fold
RU (at 100 nM) (human IL2Rα [8]): 40.8 RU
Relevant binding to WT IL2 (%) (human IL2Rα [8]): 28.7%
EC50 [9]: 538 nM
EC50 [10]: 1.8 nM
B4: EP003 (ligand)
chain: APTSSSTKKTQLQLEHLLLDLQMILNGINNYKNPKLTRMLTFKFYMPKKATELKHLQCLEEELKPLEEVLNLAQSKNFHLGVTDSISNAIVLARELKGSETTFMCEYADETATIVEFLNRWITFCQSIISTLT
notes: Produced in E. coli or mammalian cells; also called EP03; EP0003; not shown: C-terminal Flag and 6xHis tags

Kd (human IL2Rβ [11]): 8.81 nM
koff (human IL2Rβ [11]): 0.0301 s⁻¹
kon (human IL2Rβ [11]): 3.42e+06 M⁻¹ s⁻¹
EC50 [12]: 9.1 nM
EC50 [1]: 119 nM
EC50 [9]: 2.5 nM
EC50 [10]: 6.5 nM
B5: EP258 (ligand)
chain: B4 chain with G81T, V82A, T83R, S85A, A89I, I90N, L92I, A93I, R94Q
notes: not shown: His and Flag tags

EC50 [1]: 185 nM
binding result [13]: no binding (tested: not printed)
binding result (human IL2Rα [14]): no binding (tested: not printed)
B6: EP340 (ligand)
chain: APTSSSTKKTQLQLEHLLLDLQMILNGINNYKNPLLTDMLTRKFYMPKKATELKHLQCLEEELKPLEEVLNLAQSKNFHLTPRDAIDNIRVIILELKGSETTFMCEYADETATIVEFLNRWITFCQSIISTLT
notes: not shown: His and Flag tags

EC50 [12]: 13.8 nM
EC50 [1]: 24.5 nM
EC50 [9]: 13 nM
EC50 [10]: 2.2 nM
Kd (human IL2Rβ [15]): 9.11 nM
B7: EP252 (ligand)
chain: B6 chain with L35K, D38R, R42F, I93V, L94Q
notes: not shown: His and Flag tags

EC50 [12]: 8.9 nM
EC50 [1]: 52.8 nM
EC50 [9]: 48.5 nM
EC50 [10]: 4.8 nM
Kd (human IL2Rβ [15]): 29.5 nM
B8: EP253 (ligand)
chain: B6 chain with L35K, D38R, R42F
notes: not shown: His and Flag tags
